According to patent US20180186873A1 (CEPHALON, published 2018):
Numbering of substitutions follows the chain as printed. Read-outs that look alike come from different tables or passages of the source. One block for each binder: values may come before it.

Assays:
recombinant human IL-5 [1] = molecular target: T1, recombinant human IL-5 (human, UniProt P05113 20-134); assay: cell-based or functional assay
recombinant human IL-5 [2] = molecular target: T1, recombinant human IL-5
recombinant human IL-5 [3] = molecular target: T2, recombinant human IL-5 (human, UniProt P05113 20-134); assay: SPR
recombinant human IL-5 [4] = molecular target: T2, recombinant human IL-5; assay: SPR; remark: listed apart in the source
guinea pig IL-5 = molecular target: T3, guinea pig IL-5 (guinea pig, UniProt O08987 20-135); assay: SPR
T3 sequence: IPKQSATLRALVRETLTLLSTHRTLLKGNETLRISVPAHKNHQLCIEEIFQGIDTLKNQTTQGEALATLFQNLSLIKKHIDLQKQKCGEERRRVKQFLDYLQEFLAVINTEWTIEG

[5] = molecular target: recombinant human growth hormone (human, UniProt P01241 27-217); assay: SPR
[6] = molecular target: recombinant human granulocyte macrophage colony stimulating factor (human, UniProt P04141 18-144); assay: SPR
[7] = molecular target: T4, recombinant human macrophage colony stimulating factor (human, UniProt P09603 33-190, limits assumed); assay: SPR
T4 sequence (looked up): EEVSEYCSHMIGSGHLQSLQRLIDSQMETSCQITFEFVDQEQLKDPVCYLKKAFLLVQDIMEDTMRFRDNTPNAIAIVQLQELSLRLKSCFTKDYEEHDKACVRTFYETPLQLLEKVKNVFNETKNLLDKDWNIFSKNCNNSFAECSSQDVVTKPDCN

mouse IL-5 = molecular target: T5, mouse IL-5 (mouse, UniProt P04401 21-133); assay: SPR
T5 sequence (looked up): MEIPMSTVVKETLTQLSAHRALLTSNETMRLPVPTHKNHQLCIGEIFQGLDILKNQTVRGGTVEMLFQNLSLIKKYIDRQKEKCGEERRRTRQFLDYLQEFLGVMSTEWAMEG

recombinant human IL-3 = molecular target: T6, recombinant human IL-3 (human, UniProt P08700 20-152); assay: SPR
T6 sequence (looked up): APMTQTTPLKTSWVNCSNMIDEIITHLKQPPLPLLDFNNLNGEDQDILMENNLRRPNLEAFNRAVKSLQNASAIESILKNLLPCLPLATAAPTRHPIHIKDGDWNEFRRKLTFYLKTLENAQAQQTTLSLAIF

recombinant human IL-4 = molecular target: T7, recombinant human IL-4 (human, UniProt P05112 25-153); assay: SPR
T7 sequence (looked up): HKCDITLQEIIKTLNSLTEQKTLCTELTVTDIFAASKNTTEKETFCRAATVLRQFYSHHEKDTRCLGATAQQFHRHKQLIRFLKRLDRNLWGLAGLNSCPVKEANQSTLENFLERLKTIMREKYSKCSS

recombinant human IL-2 = recombinant human IL-2 (human, UniProt P60568 21-153); assay: SPR
rat IL-5 = molecular target: T8, rat IL-5 (rat, UniProt Q08125 20-132); assay: SPR
T8 sequence (looked up): T5 sequence (looked up) with T14I, A18T, M65I, R79G, R90K, Q93H, G113V

Chain of recombinant human growth hormone (P01241 27-217 limits assumed): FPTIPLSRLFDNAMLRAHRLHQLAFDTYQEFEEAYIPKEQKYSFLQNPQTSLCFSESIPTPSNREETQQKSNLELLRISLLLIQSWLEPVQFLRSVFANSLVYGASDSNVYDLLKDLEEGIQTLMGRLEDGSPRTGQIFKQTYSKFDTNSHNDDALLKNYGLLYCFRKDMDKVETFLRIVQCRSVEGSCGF
Chain of recombinant human IL-2 (P60568 21-153 limits assumed): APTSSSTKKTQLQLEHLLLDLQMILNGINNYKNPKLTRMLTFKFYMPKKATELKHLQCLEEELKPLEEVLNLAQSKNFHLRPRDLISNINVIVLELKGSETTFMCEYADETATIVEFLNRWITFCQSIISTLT
Chain of recombinant human granulocyte macrophage colony stimulating factor (P04141 18-144 limits assumed): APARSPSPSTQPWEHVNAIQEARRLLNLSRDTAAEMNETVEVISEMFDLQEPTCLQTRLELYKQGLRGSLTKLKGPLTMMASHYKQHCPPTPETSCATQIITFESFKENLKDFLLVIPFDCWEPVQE

IC50 (pM) in TF1.6G4 (recombinant human IL-5 [1]): 35.1 pM
Kd (recombinant human IL-5 [2]): 0.036 nM
B1: antibody 3A5 (antibody, human IgG1, lambda, V domains shown)
VH: QVQLQESGPGLVKPSQTLSLTCTVSGGSISNGGYYWSWIRQHPGKGLEWIGYIYYSGSTYYNPSLKSRVSISVDTSKNQFSLKLNSVTAADTAVYYCASLGNWFDYWGQGTLVTVSS
VL: SSILTQPPSVSVAPGQTARITCGGNNIGSKNVYWYQQKPGQAPVLVVHDDSDRPSGIPERFSGSNSGNTATLTISRVEVGDEADYSCQVWYSSSDHVVFGGGTKLTVLG

Kd (recombinant human IL-5 [3]): 0.123 nM
% 3A5.040 kd (recombinant human IL-5 [4]): 155%
B2: 3A5.294 (antibody, human IgG4 S228P, lambda, V domains shown)
VH: B1 VH with S70T, N85S
VL: B1 VL with S2Y, I3V, Y91D, V98A

binding result (guinea pig IL-5): no binding (tested: 10 µg/ml)
binding result [5]: no binding (tested: 1 µg/ml)
binding result [6]: no binding (tested: 1 µg/ml)
binding result [7]: no binding (tested: 1 µg/ml)
binding result (mouse IL-5): no binding (tested: 10 µg/ml)
binding result (recombinant human IL-3): no binding (tested: 1 µg/ml)
binding result (recombinant human IL-4): no binding (tested: 1 µg/ml)
binding result (recombinant human IL-2): no binding (tested: 1 µg/ml)
binding result (rat IL-5): no binding (tested: 10 µg/ml)
B3: antibody 3A5.046 (antibody, human IgG4 S228P, lambda)
heavy: QVQLQESGPGLVKPSQTLSLTCTVSGGSISNGGYYWSWIRQHPGKGLEWIGYIYYSGSTYYNPSLKSRVTISVDTSKNQFSLKLSSVTAADTAVYYCASLGNWFDYWGQGTLVTVSSASTKGPSVFPLAPCSRSTSESTAALGCLVKDYFPEPVTVSWNSGALTSGVHTFPAVLQSSGLYSLSSVVTVPSSSLGTKTYTCNVDHKPSNTKVDKRVESKYGPPCPPCPAPEFLGGPSVFLFPPKPKDTLYITREPEVTCVVVDVSQEDPEVQFNWYVDGVEVHNAKTKPREEQFNSTYRVVSVLTVLHQDWLNGKEYKCKVSNKGLPSSIEKTISKAKGQPREPQVYTLPPSQEEMTKNQVSLTCLVKGFYPSDIAVEWESNGQPENNYKTTPPVLDSDGSFFLYSRLTVDKSRWQEGNVFSCSVMHEALHNHYTQKSLSLSLG
light: SYVLTQPPSVSVAPGQTARITCGGNNIGSKNVYWYQQKPGQAPVLVVHDDSDRPSGIPERFSGSNSGNTATLTISRVEVGDEADYSCQVWDSSSDHVVFGGGTKLTVLGQPKAAPSVTLFPPSSEELQANKATLVCLISDFYPGAVTVAWKADSSPVKAGVETTTPSKQSNNKYAASSYLSLTPEQWKSHRSYSCQVTHEGSTVEKTVAPTECS
